Source: paper PMC10437998, “A previously unrecognized superfamily of macro-conotoxins includes an inhibitor of the sensory neuron calcium channel Cav2.3” (PLOS Biology, 2023)
Values joined by “and” are separate entries in the source; they are usually repeats but may differ in a detail not shown here. Equal values may be shown once.

Legend:
[1] = biological target: the molecule itself; assay: SEC; […] (pH 7.8), 150 mM NaCl, 0.5 mL/min; […]
[2] = biological target: the molecule itself; assay: […] (pH 7.8), room temperature; 1 mg/mL to 13.2 mg/mL (100 μM to 1.3 mM); […]

B1: Mu8.1 (SLC_Mu8.1), macro-conotoxin from Conus mucronatus (natural protein)
chain: GENSDNLTHCRLFEFRLCLLECMSLTLDHCYARCTTVITQIHGSDTNRFDCTIFKTCYYRCYVLGKTEDHCWKGTATSVTGDVGDLEFC
notes: also called Mu8.1_38; Mu8.1_59
[1]
  stoichiometry N: 2
[2]
  stoichiometry N: 4 and 6
